Reference: patent US20210163590A1 (WUXI BIOLOGICS IRELAND, published 2021)

T1: human TIM-1 (human, UniProt Q96D42 21-290, limits assumed)
T1 sequence (looked up): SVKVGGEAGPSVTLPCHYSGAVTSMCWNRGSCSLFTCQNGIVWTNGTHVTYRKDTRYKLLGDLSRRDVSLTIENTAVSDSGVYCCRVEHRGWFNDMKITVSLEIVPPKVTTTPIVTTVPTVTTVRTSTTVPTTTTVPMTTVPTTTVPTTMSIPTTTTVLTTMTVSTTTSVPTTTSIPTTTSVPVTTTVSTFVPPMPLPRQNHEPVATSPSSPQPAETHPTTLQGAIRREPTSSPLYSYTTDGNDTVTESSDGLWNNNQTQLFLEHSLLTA

T2: W340-cynoPro1.ECD.Fc (cynomolgus monkey, UniProt A0A2K5U3G7 22-195)
T2 construct: extracellular domain; also called cynomolgus monkey TIM-3.ECD protein; not shown: C-terminal Fc tag
T2 sequence: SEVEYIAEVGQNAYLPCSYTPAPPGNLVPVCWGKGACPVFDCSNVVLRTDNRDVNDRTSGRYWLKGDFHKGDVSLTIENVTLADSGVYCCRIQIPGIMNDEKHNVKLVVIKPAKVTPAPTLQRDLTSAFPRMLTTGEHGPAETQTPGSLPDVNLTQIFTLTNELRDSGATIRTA

T3: cynomolgus monkey TIM-3 on the cell surface (cynomolgus monkey, UniProt A0A2K5U3G7 22-294)
T3 construct: whole, on cells; also called cyno TIM-3-expressing transfectant cells
T3 sequence: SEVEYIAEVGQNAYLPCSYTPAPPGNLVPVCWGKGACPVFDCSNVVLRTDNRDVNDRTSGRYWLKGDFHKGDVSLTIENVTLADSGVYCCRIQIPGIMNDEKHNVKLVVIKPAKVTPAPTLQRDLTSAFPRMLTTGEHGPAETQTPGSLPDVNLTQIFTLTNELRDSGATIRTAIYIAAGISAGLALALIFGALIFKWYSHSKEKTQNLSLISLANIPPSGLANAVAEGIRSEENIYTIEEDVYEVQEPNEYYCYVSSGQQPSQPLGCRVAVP

T4: human TIM-4 (human, UniProt Q96H15 25-314, limits assumed)
T4 sequence (looked up): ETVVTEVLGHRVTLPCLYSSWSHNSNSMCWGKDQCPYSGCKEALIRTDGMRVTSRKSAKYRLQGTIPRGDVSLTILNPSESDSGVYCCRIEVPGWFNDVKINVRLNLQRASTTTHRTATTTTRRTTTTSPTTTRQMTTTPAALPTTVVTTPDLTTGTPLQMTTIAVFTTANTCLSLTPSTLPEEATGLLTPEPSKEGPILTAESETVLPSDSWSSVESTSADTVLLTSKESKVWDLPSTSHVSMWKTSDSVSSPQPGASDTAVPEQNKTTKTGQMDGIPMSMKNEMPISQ

B1: W3402-2.131.17-z3 (antibody, IgG4, V domains shown)
VH: QVQLQESGPGLVKPSETLSLTCTVSGFSLTNYGVGWIRQPPGKGLEWIGIMTSGGSTYYNSALRARVTINRDTSKNQFSLKLSSVTAADTAVYYCTRDGTTVETLFDYWGQGTMVTVSS
VL: DIVMTQTPLSLSVTPGQPASISCRSSQSLSDSAGITYLYWYLQKPGQSPQLLIYLASNLGSGVPDRFSGSGSGTDFTLKISRVEAEDVGVYYCMQGIHVPLTFGQGTKLEIK
notes: Humanized monoclonal antibody with a kappa light chain; also called W3402-z3; humanized variant W3402-z3
B2: chimeric W3402-x (antibody, human IgG4, V domains shown)
VH: QVQLKESGPGLVQSSQTLSLTCTVSGFSLTNYGVGWIRQPPGKGLEWIAIMTSGGSTYYNSALRARLNINRDTSKSQVFLEVNSLHTEDTATYFCTRDGTTVETLFDYWGQGLMVTVSS
VL: DVVLTQTPSTLSAIIGQSVSISCRSSQSLSDSAGITYLYWYLQRPGQSPQLLIYLASNLGSGVPNRFSGSGSGTDFTLKISGVEPEDLGVYHCMQGIHVPLTFGSGTKLEIK
notes: also called parental chimeric W3402-x; Parental xAb

What was measured:
human TIM-1 = molecular target: T1, human TIM-1; test: ELISA on plate-coated human TIM-1
From the text: (§1) The binding of the antibodies to the plates was detected by corresponding HRP-conjugated 2nd antibodies (see FIGS. 3A-3C).

W340-cynoPro1.ECD.Fc = molecular target: T2, W340-cynoPro1.ECD.Fc; test: SPR (Biacore 8K); cyno TIM-3 ECD on CM5 chip, antibody as analyte, 1:1 fit
From the text: Full kinetic binding affinity to cynomolgus monkey TIM-3 tested by surface Plasmon resonance (SPR): the sensor chip (CM5) was pre-coated with cynomolgus monkey TIM-3.ECD protein. […] The association and dissociation curve was fit to a 1:1 kinetics mode using Biacore 8K software (Table 8).

[1] = molecular target: T3, cynomolgus monkey TIM-3 on the cell …; test: flow cytometry on cyno TIM-3-expressing transfectant cells
Method: Cross species binding (FACS): the binding of TIM-3 antibodies to cynomolgus monkey TIM-3 was determined by FACS. […] MFI of the cells was measured by a flow cytometer and analyzed by FlowJo.

human TIM-4 = molecular target: T4, human TIM-4; test: ELISA on plate-coated human TIM-4
From the text: as §1

hTIM-3.ECD.his [2] = molecular target: T5, hTIM-3.ECD.his (human, UniProt Q8TDQ0 22-202); test: SPR, full kinetics
T5 construct: extracellular domain; also called W340-hPro1.ECD.His; human TIM-3 (SPR analyte); not shown: C-terminal His tag

hTIM-3.ECD.his [3] = molecular target: T5, hTIM-3.ECD.his; test: SPR Koff ranking; antibody captured on anti-human IgG GLM chip, analyte W340-hPro1.ECD.His
Method: 3.4 Koff Ranking: the humanized variants, the parental chimeric antibody, as well as negative control were injected to the sensor chip (GLM), which was pre-coated with anti-human IgG.

| Binder | binding result (human TIM-1) | Kd (W340-cynoPro1.ECD.Fc) [nM] | EC50 [1] [nM] | binding result (human TIM-4) | Kd (hTIM-3.ECD.his [2]) [nM] | koff (hTIM-3.ECD.his [2]) [s⁻¹] | kon (hTIM-3.ECD.his [2]) [M⁻¹ s⁻¹] | koff (hTIM-3.ECD.his [3]) [s⁻¹] |
| --- | --- | --- | --- | --- | --- | --- | --- | --- |
| B1 | no binding (tested: 66.7 nM) | 0.0209 | 0.32 | no binding (tested: 66.7 nM) | – | – | – | – |
| B2 | – | – | – | – | 0.00937 | 2.12e-05 | 2.26e+06 | 1.95e-06 |
